This passage reports inhibition of osmotic water permeability (Pf) of X. laevis oocytes coexpressing HhAqp1ab1 v1 and HhAqp1ab1-WT in ratios from 0.05 to 50, untagged forms, with respect to the canonical channel only and inhibition of osmotic water permeability (Pf) of X. laevis oocytes expressing SsAqp1ab2-WT plus YwhazLb, treated with FSK, after injecting equal cRNA amounts of WT and SsAqp1ab2 v2, untagged forms results from article PMC10681232.

In experiment [1] the target is Flag-tagged Atlantic halibut Aqp1ab1 wild-type canonical channel (Flag-HhAqp1ab1-WT) (Atlantic halibut (Hippoglossus hippoglossus)).
The target in experiment [2] is Flag-tagged Senegalese sole Aqp1ab2 wild-type canonical channel (Flag-SsAqp1ab2-WT) (Senegalese sole (Solea senegalensis)).

“HA-tagged Atlantic halibut Aqp1ab1 splice variant 1 (HA-HhAqp1ab1_v1)”: the inhibition of osmotic water permeability (Pf) of X. laevis oocytes coexpressing HhAqp1ab1 v1 and HhAqp1ab1-WT in ratios from 0.05 to 50, untagged forms, with respect to the canonical channel only in experiment [1] came out at 94%.

On to “HA-tagged Senegalese sole Aqp1ab2 splice variant 2 (HA-SsAqp1ab2_v2) (natural protein)”, for which the inhibition of osmotic water permeability (Pf) of X. laevis oocytes expressing SsAqp1ab2-WT plus YwhazLb, treated with FSK, after injecting equal cRNA amounts of WT and SsAqp1ab2 v2, untagged forms in experiment [2] stood at 84%.
